# Results: patent US20160108115 (published 2016)
# T1: FcγRIIIb (human, UniProt O75015)
# T1 chain: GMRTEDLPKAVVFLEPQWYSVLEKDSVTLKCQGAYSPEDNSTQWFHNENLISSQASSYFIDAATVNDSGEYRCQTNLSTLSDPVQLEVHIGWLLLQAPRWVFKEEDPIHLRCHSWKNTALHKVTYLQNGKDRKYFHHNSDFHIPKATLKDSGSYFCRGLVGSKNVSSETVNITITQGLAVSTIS
# T2: FcγRIIb/c (human, UniProt P31994)
# T2 chain: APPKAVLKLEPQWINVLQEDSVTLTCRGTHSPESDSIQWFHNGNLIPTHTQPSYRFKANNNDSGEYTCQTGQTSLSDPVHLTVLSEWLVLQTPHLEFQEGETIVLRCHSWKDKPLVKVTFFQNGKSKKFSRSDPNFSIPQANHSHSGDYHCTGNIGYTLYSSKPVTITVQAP
# T3: FcγRI (human, UniProt P12314)
# T3 chain: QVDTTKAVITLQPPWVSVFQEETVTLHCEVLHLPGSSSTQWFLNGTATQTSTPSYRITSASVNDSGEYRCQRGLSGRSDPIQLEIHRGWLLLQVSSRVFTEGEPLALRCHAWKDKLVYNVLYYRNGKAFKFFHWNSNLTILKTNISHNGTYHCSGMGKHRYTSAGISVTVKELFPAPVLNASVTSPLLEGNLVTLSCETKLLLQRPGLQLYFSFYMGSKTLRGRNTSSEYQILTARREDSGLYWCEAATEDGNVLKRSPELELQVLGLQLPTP
# T4: FcγRIIa (human, UniProt P12318)
# T4 chain: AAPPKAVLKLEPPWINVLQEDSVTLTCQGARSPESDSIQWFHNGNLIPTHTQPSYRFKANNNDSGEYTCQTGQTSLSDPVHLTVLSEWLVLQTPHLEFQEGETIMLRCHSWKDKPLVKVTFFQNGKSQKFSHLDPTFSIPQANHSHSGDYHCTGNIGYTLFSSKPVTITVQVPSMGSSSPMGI
# Assays:
# FcγRIIIb [1] = target: T1, FcγRIIIb; experiment: SPR, pH 7.4
# FcγRIIIa [2] = target: T5, FcγRIIIa (human, UniProt P08637); experiment: SPR, pH 7.4
# FcγRIIb/c = target: T2, FcγRIIb/c; experiment: SPR, pH 7.4
# FcγRI [3] = target: T3, FcγRI; experiment: SPR, pH 7.4
# [4] = target: the molecule itself; experiment: SPR, pH 7.4, self-association, engineering batch
# FcγRIIIb [5] = target: T1, FcγRIIIb; experiment: ELISA, immune complexes
# FcγRIIa = target: T4, FcγRIIa; experiment: SPR, pH 7.4
# FcγRIIIa [6] = target: T5, FcγRIIIa; experiment: ELISA, immune complexes
# FcγRI [7] = target: T3, FcγRI; experiment: ELISA, immune complexes
# [8] = target: the molecule itself; experiment: SPR, pH 7.4, self-association, GMP batch
# T5 sequence (P08637 17-208): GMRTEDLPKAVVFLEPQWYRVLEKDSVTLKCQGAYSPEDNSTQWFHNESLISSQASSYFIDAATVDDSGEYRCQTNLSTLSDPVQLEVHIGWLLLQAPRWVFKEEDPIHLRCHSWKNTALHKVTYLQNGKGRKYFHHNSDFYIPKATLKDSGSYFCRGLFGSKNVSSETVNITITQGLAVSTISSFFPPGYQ
binder,measurement,setting,value
BNJ441 (full length) (antibody) chain 1: QVQLVQSGAEVKKPGASVKVSCKASGHIFSNYWIQWVRQAPGQGLEWMGEILPGSGHTEYTENFKDRVTMTRDTSTSTVYMELSSLRSEDTAVYYCARYFFGSSPNWYFDVWGQGTLVTVSSASTKGPSVFPLAPCSRSTSESTAALGCLVKDYFPEPVTVSWNSGALTSGVHTFPAVLQSSGLYSLSSVVTVPSSNFGTQTYTCNVDHKPSNTKVDKTVERKCCVECPPCPAPPVAGPSVFLFPPKPKDTLMISRTPEVTCVVVDVSQEDPEVQFNWYVDGVEVHNAKTKPREEQFNSTYRVVSVLTVLHQDWLNGKEYKCKVSNKGLPSSIEKTISKAKGQPREPQVYTLPPSQEEMTKNQVSLTCLVKGFYPSDIAVEWESNGQPENNYKTTPPVLDSDGSFFLYSRLTVDKSRWQEGNVFSCSVLHEALHSHYTQKSLSLSLGK chain 2: DIQMTQSPSSLSASVGDRVTITCGASENIYGALNWYQQKPGKAPKLLIYGATNLADGVPSRFSGSGSGTDFTLTISSLQPEDFATYYCQNVLNTPLTFGQGTKVEIKRTVAAPSVFIFPPSDEQLKSGTASVVCLLNNFYPREAKVQWKVDNALQSGNSQESVTEQDSKDSTYSLSSTLTLSKADYEKHKVYACEVTHQGLSSPVTKSFNRGEC,Kd,FcγRIIIb [1],3.33 µM
same,Kd,FcγRIIIa [2],7.23 µM
same,Kd,FcγRIIb/c,8.09 µM
same,Kd,FcγRI [3],3.75 µM
same,Kd,[4],7100 µM
same,binding result,FcγRIIIb [5],no binding
same,Kd,FcγRIIa,2.31 µM
same,binding result,FcγRIIIa [6],no binding
same,binding result,FcγRI [7],no binding
same,Kd,[8],270 µM
